Results as given in patent US20170044515.

Experiments:
[1] = target: T1, kB1-EHV (not fully specified)
T1 chain: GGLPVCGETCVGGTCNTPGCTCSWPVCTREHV

[2] = target: T2, EV-9
T2 chain: EINSTEINHV

[3] = target: T3, Histatin-3b
T3 chain: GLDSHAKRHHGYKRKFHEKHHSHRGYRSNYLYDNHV

[4] = target: T4, Rat neuromedin U substrate
T4 chain: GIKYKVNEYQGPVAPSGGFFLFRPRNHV

[5] = target: T5, kB1-NH (not fully specified)
T5 chain: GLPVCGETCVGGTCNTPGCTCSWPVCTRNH

[6] = target: T6, HV-10
T6 chain: HLPPPIFNHV

[7] = target: T7, RV-10
T7 chain: RVTRPVNHV

[8] = target: T8, Histatin-1b
T8 chain: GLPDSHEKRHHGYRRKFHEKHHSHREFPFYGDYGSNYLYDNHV

[9] = target: T9, kB1-NHVIA (not fully specified)
T9 chain: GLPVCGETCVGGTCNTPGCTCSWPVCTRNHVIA

[10] = target: T10, kB1-QHV (not fully specified)
T10 chain: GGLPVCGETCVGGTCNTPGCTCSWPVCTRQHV

[11] = target: modified GFP ending with Asn-His-Val at the C-terminus and starting with Gly-Ile at the N-terminus
[12] = target: T11, Salusin substrate (H. sapiens)
T11 chain: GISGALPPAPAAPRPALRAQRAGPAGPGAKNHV

[13] = target: T12, kB1-NHV (not fully specified)
T12 chain: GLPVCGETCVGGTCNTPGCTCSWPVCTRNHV

[14] = target: T13, Thanatin analog
T13 chain: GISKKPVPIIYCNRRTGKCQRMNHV

[15] = target: T14, GV-10
T14 chain: GLPPPIFNHV

[16] = target: T15, Histatin-1a
T15 chain: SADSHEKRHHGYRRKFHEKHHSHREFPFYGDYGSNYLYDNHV

[17] = target: T16, SFTI-NHV
T16 chain: GRCTKSIPPICFPNHV

[18] = target: T17, kB1-DHV (not fully specified)
T17 chain: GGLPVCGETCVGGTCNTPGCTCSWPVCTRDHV

[19] = target: T18, kB1-NHVI (not fully specified)
T18 chain: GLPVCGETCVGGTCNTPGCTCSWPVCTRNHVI

[20] = target: T19, Neuromedin U substrate (H. sapiens)
T19 chain: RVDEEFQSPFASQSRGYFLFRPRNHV

[21] = target: T20, SFTI-DHV
T20 chain: GRCTKSIPPICFPDHV

[22] = target: MrIA conotoxin substrate
[23] = target: T21, Galanin substrate (H. sapiens)
T21 chain: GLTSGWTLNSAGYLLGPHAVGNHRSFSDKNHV

[24] = target: T22, kB1-N* (not fully specified)
T22 chain: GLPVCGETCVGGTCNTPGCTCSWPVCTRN

[25] = target: T23, Histatin-3a
T23 chain: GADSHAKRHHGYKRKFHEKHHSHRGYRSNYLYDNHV

[26] = target: T24, kB1-AHV (not fully specified)
T24 chain: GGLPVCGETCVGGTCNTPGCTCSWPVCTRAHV

[27] = target: T25, Apelin substrate (H. sapiens)
T25 chain: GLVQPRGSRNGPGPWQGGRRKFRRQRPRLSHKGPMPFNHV

[28] = target: T26, SV-10
T26 chain: SLPPPIFNHV

[29] = target: T27, SA-kB1-NHV
T27 chain: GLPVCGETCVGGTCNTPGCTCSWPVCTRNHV

B1: butelase 1 (active enzyme purified from pods of Clitoria ternatea) (protein)
chain: VEGTRWAVLVAGSKGYVNYRHQADVCHAYQILKKGGLKDENIIVFMYDDIAYNESNPHPGVIINHPYGSDVYKGVPKDYVGEDINPPNFYAVLLANKSALTGTGSGKVLDSGPNDHVFIYYTDHGGAGVLGMPSKPYIAASDLNDVLKKKHASGTYKSIVFYVESCESGSMFDGLLPEDHNIYVMGASDTGESSWVTYCPLQHPSPPPEYDVCVGDLFSVAWLEDCDVHNLQTETFQQQYEVVKNKTIVALIEDGTHVVQYGDVGLSKQTLFVYMGTDPANDNNTFTDKNSLGTPRKAVSQRDADLIHYWEKYRRAPEGSSRKAEAKKQLREVMAHRMHIDN
Cyclization yield (%) at 4 h [1]: < 1% | cyclization after 4 h (MS) [1]: No cyclization of kB1-AHV, kB1-QHV or kB1-EHV was observed after incubating with butelase 1 for 4 h | Yield (%) of dimerization and cyclization, products Cyclo([..]), [..] [2]: 20% | Yield (%) of cyclization [3]: 90% | Km [4]: 20.2 µM | cyclization yield within 5 min [4]: butelase 1 achieved >95% cyclization yields within 5 min for all peptides tested | kcat [4]: 26.6 s⁻¹ | kcat/Km [4]: 1.31e+06 M^-1 S^-1 | Cyclization yield (%) at 4 h [5]: < 5% | Yield (%) of dimerization and cyclization, product Cyclo([..])2 [6]: 50% | Yield (%) of dimerization and cyclization, products Cyclo(RVTRPVN), Cyclo(RVTRPVN)2 [7]: 20% | Yield (%) of cyclization [8]: 90% | Cyclization yield (%) at 3 h [9]: > 95% | Km [9]: 129 µM | kcat [9]: 0.38 s⁻¹ | kcat/Km [9]: 2970 M⁻¹ s⁻¹ | Cyclization yield (%) at 4 h [10]: < 1% | cyclization after 4 h (MS) [10]: No cyclization of kB1-AHV, kB1-QHV or kB1-EHV was observed after incubating with butelase 1 for 4 h | cyclization yield within 15 min (SDS page, ESI-MS) [11]: The cyclization reaction completed within 15 min with >90% yield | cyclization yield within 5 min [12]: butelase 1 achieved >95% cyclization yields within 5 min for all peptides tested | Cyclization yield (%) at 0.8 h [13]: > 95% | Km [13]: 213 µM | conversion into cyclic kB1 within 6 min (RP-HPLC) [13]: converted about 40% of kB1-NHV into cyclic kB1 within 6 min | kcat [13]: 2.28 s⁻¹ | kcat/Km [13]: 10700 M⁻¹ s⁻¹ | Yield (%) of cyclization [14]: 95% | Yield (%) of dimerization and cyclization, product Cyclo([..])2 [15]: 50% | Yield (%) of cyclization [16]: 90% | Cyclization yield (%) at 0.8 h [17]: > 95% | Km [17]: 51 µM | catalytic efficiency (kcat/Km) [17]: catalytic efficiency of 11,700 M^-1 s^-1 | kcat [17]: 0.6 s⁻¹ | kcat/Km [17]: 10700 M⁻¹ s⁻¹ | Cyclization yield (%) at 4 h [18]: < 10% | cyclization rate against kB1-NHV [18]: at about a hundred-fold slower than kB1-NHV | Cyclization yield (%) at 2 h [19]: > 95% | Km [19]: 62 µM | kcat [19]: 0.25 s⁻¹ | kcat/Km [19]: 4030 M⁻¹ s⁻¹ | Km [20]: 8.7 µM | cyclization yield within 5 min [20]: butelase 1 achieved >95% cyclization yields within 5 min for all peptides tested | kcat [20]: 5.78 s⁻¹ | kcat/Km [20]: 664000 M^-1 S^-1 | Cyclization yield (%) at 4 h [21]: < 10% | Km [22]: 7.9 µM | Yield (%) of cyclization [22]: 95% | kcat [22]: 2.2 s⁻¹ | kcat/Km [22]: 278000 M⁻¹ s⁻¹ | Km [23]: 34.2 µM | cyclization yield within 5 min [23]: butelase 1 achieved >95% cyclization yields within 5 min for all peptides tested | kcat [23]: 3.54 s⁻¹ | kcat/Km [23]: 103000 M^-1 S^-1 | Cyclization yield (%) at 4 h [24]: < 10% | Yield (%) of cyclization [25]: 90% | Cyclization yield (%) at 4 h [26]: < 1% | cyclization after 4 h (MS) [26]: No cyclization of kB1-AHV, kB1-QHV or kB1-EHV was observed after incubating with butelase 1 for 4 h | Km [27]: 6.7 µM | cyclization yield within 5 min [27]: butelase 1 achieved >95% cyclization yields within 5 min for all peptides tested | kcat [27]: 5.78 s⁻¹ | kcat/Km [27]: 859000 M^-1 S^-1 | Yield (%) of dimerization and cyclization, product Cyclo([..])2 [28]: 50% | Cyclization yield (%) at 0.2 h [29]: > 95% | Km [29]: 31.5 µM | fold change of catalytic efficiency against kB1-NHV [29]: a 50-fold improvement in the catalytic efficiency of SA-kB1-NHV compared to kB1-NHV | kcat [29]: 17.1 s⁻¹ | kcat/Km [29]: 542000 M⁻¹ s⁻¹

B2: Jack bean legumain (Takara Bio) (protein)
chain: EVGTRWAVLVAGSNGYGNYRHQADVCHAYQLLIKGGVKEENIVVFMYDDIAYNAMNPRPGVIINHPQGPDVYAGVPKDYTGEDVTPENLYAVILGDKSKVKGGSGKVINSNPEDRIFIFYSDHGGPGVLGMPNAPFVYAMDFIDVLKKKHASGGYKEMVIYIEACESGSIFEGIMPKDLNIYVTTASNAQENSFGTYCPGMNPPPPEEYVTCLGDLYSVSWMEDSETHNLKRETVQQQYQSVRKRTSNSNSYRFGSHVMQYGDTNITAEKLYLYHGFDPATVNFPPHNGNLEAKMEVVNQRDAELLFMWQMYQRSNHQPEKKTHILEQITETVKHRNHLDGSVELIGVLLYGPGKSSSVLHSVRAPGLPLVDDWTCLKSMVRVFETHCGSLTQYGMKHMRAFGNVCNSGVSKASMEEACKAACGGYDAGLLYPSNTGYSA
hydrolysis or cyclization of kB1-NHV (MS) [13]: commercial jack bean legumain was unable to cyclize kB1-NHV and generated only the linear form of kB1
